Results published in US20200325187A1 (Genentech, published 2020).

Each binder was assayed against T1, hVEGF-A (8-109) (human, UniProt P15692 214-315) (assay: spot phage ELISA).
T1 sequence (looked up): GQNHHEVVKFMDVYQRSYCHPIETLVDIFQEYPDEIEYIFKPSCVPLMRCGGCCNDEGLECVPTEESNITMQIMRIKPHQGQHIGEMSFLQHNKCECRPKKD
GCNIMLPFWGCKQDSDCLAGCVCQYYQSCGSE (designed binder) [9.54-4]: binds. GCNIMLPFWGCKQDSDCLAGCVCQYYQSCGEE (designed binder) [9.54-17]: binds. GCNIMLPFWGCKQDSDCLAGCVCQYYQSCGEN (designed binder) [9.54-24]: binds. GCNIMLPFWGCKQDSDCLVGCICQYYQSCGSI (designed binder) [9.54-10]: binds. GCNIMLPFWGCKQDFDCLAGCVCQYYQSCGRP (designed binder) [9.54-13]: binds. GCNIMLPFWGCKQDSDCLAGCVCQYYQSCGPH (designed binder) [9.54-27]: binds. GCNIMLPFWGCKQDSDCLAGCVCQYYQSCGTD (designed binder) [9.54-1]: binds. GCNIMLPFWGCKQDSDCLAGCVCQYYQSCGTN (designed binder) [9.54-42]: binds. GCNIMLPFWGCKQDSDCLAGCVCQYYQSCGDG (designed binder) [9.54-43]: binds. GCNIMLPFWGCKQDSDCLAGCVCQYYQSCGDD (designed binder) [9.54-19]: binds. GCNIMLPFWGCKQDFDCLAGCVCQYYQSCGGR (designed binder) [9.54-32]: binds. GCNIMLPFWGCKQDSDCLAGCVCQYYQSCGPE (designed binder) [9.54-15]: binds. GCNIMLPFWGCKQDFDCLAGCVCQYYQSCGQH (designed binder) [9.54-9]: binds. GCNIMLPFWGCKQDSDCLAGCVCQYYQSCGSD (designed binder) [9.54-21]: binds. GCNIMLPFWGCKQDSDCLAGCICQYYQSCGQN (designed binder) [9.54-12]: binds. GCNIMLPFWGCKQDSDCLAGCVCQYYQSCGMD (designed binder) [9.54-2]: binds. GCNIMLPFWGCKQDFDCLAGCVCQYYQSCGDT (designed binder) [9.54-34]: binds. GCNIMLPFWGCKQDFDCLAGCVCQYYQSCGQY (designed binder) [9.54-6]: binds. GCNIMLPFWGCKQDFDCLAGCICQYYQSCGGE (designed binder) [9.54-39]: binds. GCNIMLPFWGCKQDFDCLAGCVCQYYQSCGLE (designed binder) [9.54-5]: binds. GCNIMLPFWGCGRDFECLAGCVCQYYQSCGPLQ (designed binder) [9.54.90-3x49]: binds. GCNIMLPFWGCGRDFECLAGCVCQYYQSCGNYQ (designed binder) [9.54.90-3X50]: binds. GCNIMLPFWGCGRDFECLAGCVCQYYQSCGPLI (designed binder) [9.54.90-3X83]: binds. GCNIMLPFWGCGRDFECLAGCVCQYYQSCGGS (designed binder) [9.54.90-2x63]: binds. GCNIMLPFWGCGRDFECLAGCVCQYYQSCGLS (designed binder) [9.54.90-2x42]: binds. GCNIMLPFWGCGRDFECLAGCVCQYYQSCGTR (designed binder) [9.54.90-2x36]: binds. GCNIMLPFWGCGRDFECLAGCVCQYYQSCGIA (designed binder) [9.54.90-2x2]: binds. GCNIMLPFWGCGRDFECLAGCVCQYYQSCGVH (designed binder) [9.54.90-2x90]: binds. GCNIMLPFWGCGRDFECLAGCVCQYYQSCGFH (designed binder) [9.54.90-2x28]: binds. GCDVMQPYWGCEMDFDCLAGCVCHWYNSCGSL (designed binder) [9.63-36]: binds. GCDVMQPYWGCEMDFDCLAGCVCHWYNSCGYM (designed binder) [9.63.44-54]: binds. GCDVMQPYWGCEMDFDCLAGCVCHWYNSCGGQ (designed binder) [9.63.44-19]: binds. GCDVMQPYWGCEMDFDCLAGCVCHWYNSCGRY (designed binder) [9.63.44-82]: binds. GCDVMQPYWGCEMDFDCLAGCICHWYNSCGRP (designed binder) [9.63-74]: binds. GCDVMQPYWGCEMDFDCLAGCVCHWYNSCGSM (designed binder) [9.63-45]: binds. GCDVMQPYWGCEMDFDCLAGCICHWYNSCGTR (designed binder) [9.63-61]: binds. GCDVMQPYWGCEMDFDCLAGCVCHWYNSCGVE (designed binder) [9.63-68]: binds. GCDVMQPYWGCKQDSDCLAGCVCHWYNSCGEN (designed binder) [9.63-62]: binds. GCDVMQPYWGCEIDFDCLAGCVCHWYNSCGQV (designed binder) [9.63.44-55]: binds. GCDVMQPYWGCKQDSDCLAGCICHWYNSCGTD (designed binder) [9.63-19]: binds. GCDVMQPYWGCEMDFDCLAGCVCHWYNSCGNN (designed binder) [9.63-65]: binds. GCDVMQPYWGCEMDFDCLAGCVCHWYNSCGNS (designed binder) [9.63.44-80]: binds. GCDVMQPYWGCEMDFDCLAGCVCHWYNSCGWD (designed binder) [9.63-40]: binds. GCDVMQPYWGCKQDFDCLAGCICHWYNSCGYL (designed binder) [9.63-10]: binds. GCDVMQPYWGCEMDFDCLAGCICHWYNSCGPT (designed binder) [9.63-30]: binds. GCDVMQPYWGCEMDFDCLAGCICHWYNSCGDE (designed binder) [9.63-93]: binds. GCDVMQPYWGCEMDFDCLAGCVCHWYNSCGTP (designed binder) [9.63.44-44]: binds. GCDVMQPYWGCEMDFDCLAGCVCHWYNSCGFN (designed binder) [9.63.44-73]: binds. GCDVMQPYWGCEMDFDCLAGCVCHWYNSCGST (designed binder) [9.63.44-41]: binds. GCDVMQPYWGCEMDFDCLAGCVCHWYNSCGRL (designed binder) [9.63-21]: binds. GCDVMQPYWGCKQDFDCLAGCVCHWYNSCGPS (designed binder) [9.63-1]: binds. GCDVMQPYWGCEMDFDCLAGCVCHWYNSCGEP (designed binder) [9.63.44-16]: binds. GCDVMQPYWGCEMDFDCLAGCVCHWYNSCGDL (designed binder) [9.63-16]: binds. GCDVMQPYWGCEMDFDCLAGCVCHWYNSCGGK (designed binder) [9.63-7]: binds. GCDVMQPYWGCEMDFDCLAGCVCHWYNSCGND (designed binder) [9.63-77]: binds. GCDVMQPYWGCEMDFDCLAGCICHWYNSCGAS (designed binder) [9.63-23]: binds. GCDVMQPYWGCEMDFDCLAGCICHWYNSCGPE (designed binder) [9.63-66]: binds. GCDVMQPYWGCEMDFDCLAGCVCHWYNSCGVN (designed binder) [9.63.44-14 (SEQ ID NO: 514)]: binds. GCDVMQPYWGCEMDFDCLAGCVCHWYNSCGEK (designed binder) [9.63-17]: binds. GCDVMQPYWGCEMDFDCLAGCICHWYNSCGRT (designed binder) [9.63.44-2-A]: binds.
